According to patent US20200377590A1 (Hoffmann-La Roche, published 2020):

T1: CD81 (UniProt P60033 1-236, limits assumed)
T1 construct: whole, on cells; also called CD81 receptor
T1 sequence (looked up): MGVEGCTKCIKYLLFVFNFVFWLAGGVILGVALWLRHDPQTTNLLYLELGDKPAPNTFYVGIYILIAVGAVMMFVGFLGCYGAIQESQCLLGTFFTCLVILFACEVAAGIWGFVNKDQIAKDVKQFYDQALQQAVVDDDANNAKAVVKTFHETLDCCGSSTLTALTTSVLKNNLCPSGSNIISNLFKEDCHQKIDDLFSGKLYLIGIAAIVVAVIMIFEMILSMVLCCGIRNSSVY


molecular target: T1, CD81; assay: cell ELISA;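 also: antibody binding to HuH7 cells expressing CD81 versus a CD81-negative HuH7 control line, bound antibody detected by secondary reagent, absorbance at 450 nm with 620 nm reference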

Row | ELISA data | Binder
1 | 0.22 | CD81K04 HC GG-02-hVH_1_69 / LC GG-02-hVK_4_1 (antibody, V domains shown, human constant region) VH: QVQLVQSGAEVKKPGSSVKVSCKASGYTFSSSWMNWVRQAPGQGLEWMGRIYSGDGDAIYNQKFQGRVTITADESTSTAYMELSSLRSEDTAVYYCAREGKTGDLLLRSWGQGTLVTVSS VL: DIVMTQSPDSLAVSLGERATINCKSSKSVSTSIYSYMHWYQQKPGQPPKLLIYYASYRESGVPDRFSGSGSGTDFTLTISSLQAEDVAVYYCQHSREFPFTFGQGTKLEIK
2 | 0.783 | CD81K04 HC GG-02-hVH_1_69 / LC JA_GG-09-hVK_4_1 (antibody, V domains shown, human constant region) VH: QVQLVQSGAEVKKPGSSVKVSCKASGYTFSSSWMNWVRQAPGQGLEWMGRIYSGDGDAIYNQKFQGRVTITADESTSTAYMELSSLRSEDTAVYYCAREGKTGDLLLRSWGQGTLVTVSS VL: DIVMTQSPDSLAVSLGERATINCKSSKSVSTSIYSYMHWYQQKPGQPPKLLIKYASTRESGVPDRFSGSGSGTDFTLTISSLQAEDVAVYYCEHSREFPFTFGQGTKLEIK
3 | 0.165 | CD81K04 HC GG-03-hVH_1_69 / LC GG-03-hVK_4_1 (antibody, V domains shown, human constant region) VH: QVQLVQSGAEVKKPGSSVKVSCKASGYTFSSSWMNWVRQAPGQGLEWMGRIYSGDGDAIYAQKFQGRVTITADESTSTAYMELSSLRSEDTAVYYCAREGKTGDLLLRSWGQGTLVTVSS VL: DIVMTQSPDSLAVSLGERATINCKSSKSVSTSIYSYLAWYQQKPGQPPKLLIYYASYRESGVPDRFSGSGSGTDFTLTISSLQAEDVAVYYCQHSREFPFTFGQGTKLEIK
4 | 0.162 | CD81K04 HC GG-04-hVH_1_69 / LC GG-03-hVK_4_1 (antibody, V domains shown, human constant region) VH: QVQLVQSGAEVKKPGSSVKVSCKASGYTFSSSWMNWVRQAPGQGLEWMGRIYSGDGDAIYNQKFQGRATITADESTSTAYMELSSLRSEDTAVYYCAREGKTGDLLLRSWGQGTLVTVSS VL: DIVMTQSPDSLAVSLGERATINCKSSKSVSTSIYSYLAWYQQKPGQPPKLLIYYASYRESGVPDRFSGSGSGTDFTLTISSLQAEDVAVYYCQHSREFPFTFGQGTKLEIK
5 | 0.792 | CD81K04 HC GG-02-hVH_1_69 / LC JA_GG-08-hVK_4_1 (antibody, V domains shown, human constant region) VH: QVQLVQSGAEVKKPGSSVKVSCKASGYTFSSSWMNWVRQAPGQGLEWMGRIYSGDGDAIYNQKFQGRVTITADESTSTAYMELSSLRSEDTAVYYCAREGKTGDLLLRSWGQGTLVTVSS VL: DIVMTQSPDSLAVSLGERATINCKSSKSVSTSIYSYMHWYQQKPGQPPKLLIKYASYLESGVPDRFSGSGSGTDFTLTISSLQAEDVAVYYCEHSREFPFTFGQGTKLEIK
6 | 0.07 | CD81K04 HC GG-03-hVH_1_69 / LC GG-04-hVK_4_1 (antibody, V domains shown, human constant region) VH: QVQLVQSGAEVKKPGSSVKVSCKASGYTFSSSWMNWVRQAPGQGLEWMGRIYSGDGDAIYAQKFQGRVTITADESTSTAYMELSSLRSEDTAVYYCAREGKTGDLLLRSWGQGTLVTVSS VL: DIVMTQSPDSLAVSLGERATINCKSSKSVSTSIYSYLAWYQQKPGQPPKLLIYYASTRESGVPDRFSGSGSGTDFTLTISSLQAEDVAVYYCQHSREFPYTFGQGTKLEIK
7 | 0.773 | CD81K04 HC GG-04-hVH_1_69 / LC JA_GG-08-hVK_4_1 (antibody, V domains shown, human constant region) VH: QVQLVQSGAEVKKPGSSVKVSCKASGYTFSSSWMNWVRQAPGQGLEWMGRIYSGDGDAIYNQKFQGRATITADESTSTAYMELSSLRSEDTAVYYCAREGKTGDLLLRSWGQGTLVTVSS VL: DIVMTQSPDSLAVSLGERATINCKSSKSVSTSIYSYMHWYQQKPGQPPKLLIKYASYLESGVPDRFSGSGSGTDFTLTISSLQAEDVAVYYCEHSREFPFTFGQGTKLEIK
8 | 0.142 | CD81K04 HC GG-02-hVH_1_69 / LC GG-03-hVK_4_1 (antibody, V domains shown, human constant region) VH: QVQLVQSGAEVKKPGSSVKVSCKASGYTFSSSWMNWVRQAPGQGLEWMGRIYSGDGDAIYNQKFQGRVTITADESTSTAYMELSSLRSEDTAVYYCAREGKTGDLLLRSWGQGTLVTVSS VL: DIVMTQSPDSLAVSLGERATINCKSSKSVSTSIYSYLAWYQQKPGQPPKLLIYYASYRESGVPDRFSGSGSGTDFTLTISSLQAEDVAVYYCQHSREFPFTFGQGTKLEIK
9 | 0.141 | CD81K04 HC GG-04-hVH_1_69 / LC GG-04-hVK_4_1 (antibody, V domains shown, human constant region) VH: QVQLVQSGAEVKKPGSSVKVSCKASGYTFSSSWMNWVRQAPGQGLEWMGRIYSGDGDAIYNQKFQGRATITADESTSTAYMELSSLRSEDTAVYYCAREGKTGDLLLRSWGQGTLVTVSS VL: DIVMTQSPDSLAVSLGERATINCKSSKSVSTSIYSYLAWYQQKPGQPPKLLIYYASTRESGVPDRFSGSGSGTDFTLTISSLQAEDVAVYYCQHSREFPYTFGQGTKLEIK
10 | 0.075 | CD81K04 HC GG-02-hVH_1_69 / LC GG-04-hVK_4_1 (antibody, V domains shown, human constant region) VH: QVQLVQSGAEVKKPGSSVKVSCKASGYTFSSSWMNWVRQAPGQGLEWMGRIYSGDGDAIYNQKFQGRVTITADESTSTAYMELSSLRSEDTAVYYCAREGKTGDLLLRSWGQGTLVTVSS VL: DIVMTQSPDSLAVSLGERATINCKSSKSVSTSIYSYLAWYQQKPGQPPKLLIYYASTRESGVPDRFSGSGSGTDFTLTISSLQAEDVAVYYCQHSREFPYTFGQGTKLEIK
11 | 0.643 | CD81K04 HC GG-02-hVH_1_69 / LC JA_GG-10-hVK_4_1 (antibody, V domains shown, human constant region) VH: QVQLVQSGAEVKKPGSSVKVSCKASGYTFSSSWMNWVRQAPGQGLEWMGRIYSGDGDAIYNQKFQGRVTITADESTSTAYMELSSLRSEDTAVYYCAREGKTGDLLLRSWGQGTLVTVSS VL: DIVMTQSPDSLAVSLGERATINCRASKSVSTSIYSYMHWYQQKPGQPPKLLIKYASYLESGVPDRFSGSGSGTDFTLTISSLQAEDVAVYYCEHSREFPFTFGQGTKLEIK
12 | 0.691 | CD81K04 HC GG-03-hVH_1_69 / LC JA_GG-10-hVK_4_1 (antibody, V domains shown, human constant region) VH: QVQLVQSGAEVKKPGSSVKVSCKASGYTFSSSWMNWVRQAPGQGLEWMGRIYSGDGDAIYAQKFQGRVTITADESTSTAYMELSSLRSEDTAVYYCAREGKTGDLLLRSWGQGTLVTVSS VL: DIVMTQSPDSLAVSLGERATINCRASKSVSTSIYSYMHWYQQKPGQPPKLLIKYASYLESGVPDRFSGSGSGTDFTLTISSLQAEDVAVYYCEHSREFPFTFGQGTKLEIK
13 | 0.815 | CD81K04 HC GG-03-hVH_1_69 / LC JA_GG-08-hVK_4_1 (antibody, V domains shown, human constant region) VH: QVQLVQSGAEVKKPGSSVKVSCKASGYTFSSSWMNWVRQAPGQGLEWMGRIYSGDGDAIYAQKFQGRVTITADESTSTAYMELSSLRSEDTAVYYCAREGKTGDLLLRSWGQGTLVTVSS VL: DIVMTQSPDSLAVSLGERATINCKSSKSVSTSIYSYMHWYQQKPGQPPKLLIKYASYLESGVPDRFSGSGSGTDFTLTISSLQAEDVAVYYCEHSREFPFTFGQGTKLEIK
14 | 0.27 | CD81K04 HC GG-04-hVH_1_69 / LC GG-02-hVK_4_1 (antibody, V domains shown, human constant region) VH: QVQLVQSGAEVKKPGSSVKVSCKASGYTFSSSWMNWVRQAPGQGLEWMGRIYSGDGDAIYNQKFQGRATITADESTSTAYMELSSLRSEDTAVYYCAREGKTGDLLLRSWGQGTLVTVSS VL: DIVMTQSPDSLAVSLGERATINCKSSKSVSTSIYSYMHWYQQKPGQPPKLLIYYASYRESGVPDRFSGSGSGTDFTLTISSLQAEDVAVYYCQHSREFPFTFGQGTKLEIK
15 | 0.832 | CD81K04 HC GG-03-hVH_1_69 / LC JA_GG-09-hVK_4_1 (antibody, V domains shown, human constant region) VH: QVQLVQSGAEVKKPGSSVKVSCKASGYTFSSSWMNWVRQAPGQGLEWMGRIYSGDGDAIYAQKFQGRVTITADESTSTAYMELSSLRSEDTAVYYCAREGKTGDLLLRSWGQGTLVTVSS VL: DIVMTQSPDSLAVSLGERATINCKSSKSVSTSIYSYMHWYQQKPGQPPKLLIKYASTRESGVPDRFSGSGSGTDFTLTISSLQAEDVAVYYCEHSREFPFTFGQGTKLEIK
16 | 0.44 | CD81K04 HC GG-03-hVH_1_69 / LC GG-02-hVK_4_1 (antibody, V domains shown, human constant region) VH: QVQLVQSGAEVKKPGSSVKVSCKASGYTFSSSWMNWVRQAPGQGLEWMGRIYSGDGDAIYAQKFQGRVTITADESTSTAYMELSSLRSEDTAVYYCAREGKTGDLLLRSWGQGTLVTVSS VL: DIVMTQSPDSLAVSLGERATINCKSSKSVSTSIYSYMHWYQQKPGQPPKLLIYYASYRESGVPDRFSGSGSGTDFTLTISSLQAEDVAVYYCQHSREFPFTFGQGTKLEIK
